According to article PMC3431237:

Key:
[1] = target: T1, PbrR (Cupriavidus metallidurans CH34 (plasmid pMOL30)) (UniProt Q58AJ5); experiment: DNase I footprinting; conditions: not given in material (gel retardation and DNase I protection as in cited refs 36 and 37)
T1 sequence: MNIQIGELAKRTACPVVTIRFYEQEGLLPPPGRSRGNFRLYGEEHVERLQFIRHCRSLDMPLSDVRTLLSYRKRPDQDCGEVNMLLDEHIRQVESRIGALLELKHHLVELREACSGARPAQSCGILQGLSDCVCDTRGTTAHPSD

[2] = target: T1, PbrR (Cupriavidus metallidurans CH34 (plasmid pMOL30)); experiment: EMSA; conditions: not given in material (gel retardation and DNase I protection as in cited refs 36 and 37)

Sequence: GCGAATGGTCACCACCGGGCATGCGGTGCGCTTGGCAAGCTCGCCGATCTGGATATTCATGGCGTCGGATGGGAGATGTCTTGACTCTATAGTAACTAGAGGGTGTTAAATCGGCAACGCGAGATGAATACACACAAGGGGTTGCCATGAGCGAATGTGGCTCGAAGGGATGTGGCTGCGCTTCCGTTGCGACGCGCAACCCAGAACCGAGCACGGTTGGCGCGGGGCTGAAGCAGGCGCGCTACCGAATCGAAAACATGGACTGTCCGACCGAAGAGGCGCTGATTCGCGACAAGC (double strand) [PpbrA 296 bp PCR product]
- binding [1]: binds
- binding [2]: binds
